Substrate in the data set: Nc1ncnc2c1ncn2[C@@H]1O[C@H](COP(=O)(O)OP(=O)(O)OP(=O)(O)O)[C@@H](O)[C@H]1O
As to the kind of experiment: purified protein. The class given is biochemical, Mus musculus. The conditions noted are these: Mg2+ BS1 (ATP site); adenosine competes with ATP.

B1: Adenosine Kinase (mADK) (Mus musculus) (protein)
chain: MAAADEPKPKKLKVEAPQALSENVLFGMGNPLLDISAVVDKDFLDKYSLKPNDQILAEDKHKELFDELVKKFKVEYHAGGSTQNSMKVAQWLIQEPHKAATFFGCIGIDKFGEILKRKAADAHVDAHYYEQNEQPTGTCAACITGGNRSLVANLAAANCYKKEKHLDLERNWVLVEKARVYYIAGFFLTVSPESVLKVARYAAENNRVFTLNLSAPFISQFFKEALMDVMPYVDILFGNETEAATFAREQGFETKDIKEIAKKAQALPKVNSKRQRTVIFTQGRDDTIVAAENDVTAFPVLDQNQEEIIDTNGAGDAFVGGFLSQLVSDKPLTECIRAGHYAASVIIRRTGCTFPEKPDFH
For the protein B1, the Km (usually the concentration of substrate that gives half-maximal velocity) came out at 2.1 µM.

(Values after article PMC6086891, “Adenosine Kinase couples sensing of cellular potassium depletion to purine metabolism” (Scientific Reports, 2018).)
